Experimental data as given in patent US5472872.

What was measured:
[1] = biological target: T1, R.CviJI restriction endonuclease (Chlorella virus IL-3A) (UniProt P52283); experiment: cleavage_in_vitro
T1 sequence: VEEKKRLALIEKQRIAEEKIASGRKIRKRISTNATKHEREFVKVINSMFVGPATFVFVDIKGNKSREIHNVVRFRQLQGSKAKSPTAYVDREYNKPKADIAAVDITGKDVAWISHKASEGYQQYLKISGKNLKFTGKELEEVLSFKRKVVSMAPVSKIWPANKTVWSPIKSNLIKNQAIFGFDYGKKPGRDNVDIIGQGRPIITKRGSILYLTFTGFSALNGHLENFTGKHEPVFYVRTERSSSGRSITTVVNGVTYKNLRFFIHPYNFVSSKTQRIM

[2] = test system: M.CviJI methyltransferase (Chlorella virus IL-3A); experiment: cell_activity; conditions: p710 in E. coli; SacI 90%, HindIII 25%; improved-translation plasmids appeared 100% resistant
[3] = CviJI*, 3 uncleaved, CviJI** 0 of 76 (Table 5)
[4] = CviJI*, 5 uncleaved, CviJI** 1 of 76 (Table 5)

TGCG (double strand) [TGCG site in pUC19 (R3 PyGCPu)]
activity (cleaved junctions of 200) [1, 3]: 0

GGCC (double strand) [GGCC site in pUC19 (normal PuGCPy)]
activity (cleaved junctions of 200) ([1]; CviJI*, 1 uncleaved, CviJI** 16 of 76 (Table 5)): 24

AGCT (double strand) [AGCT site in pUC19 (normal PuGCPy)]
activity (cleaved junctions of 200) ([1]; CviJI*, 0 uncleaved, CviJI** 25 of 76 (Table 5)): 35

CGCG (double strand) [CGCG site in pUC19 (R3 PyGCPu)]
activity (cleaved junctions of 200) ([1]; CviJI*, 27 uncleaved, CviJI** 0 of 76 (Table 5)): 0

GGCG (double strand) [GGCG site in pUC19 (relaxed R2 PuGCPu)]
activity (cleaved junctions of 200) ([1]; CviJI*, 8 uncleaved, CviJI** 4 of 76 (Table 5)): 18

AGCC (double strand) [AGCC site in pUC19 (normal PuGCPy)]
activity (cleaved junctions of 200) ([1]; CviJI* (Mg, ATP, DTT), 1 uncleaved, CviJI** 13 of 76 (Table 5)): 23

GGCT (double strand) [GGCT site in pUC19 (normal PuGCPy)]
activity (cleaved junctions of 200) ([1]; CviJI*, 0 uncleaved, CviJI** 12 of 76 (Table 5)): 13

CGCA (double strand) [CGCA site in pUC19 (R3 PyGCPu)]
activity (cleaved junctions of 200) ([1]; CviJI*, 12 uncleaved, CviJI** 0 of 76 (Table 5)): 0

CGCC (double strand) [CGCC site in pUC19 (relaxed R1 PyGCPy)]
activity (cleaved junctions of 200) ([1]; CviJI*, 4 uncleaved, CviJI** 0 of 76 (Table 5)): 11

AGCA (double strand) [AGCA site in pUC19 (relaxed R2 PuGCPu)]
activity (cleaved junctions of 200) [1, 4]: 13

TGCT (double strand) [TGCT site in pUC19 (relaxed R1 PyGCPy)]
activity (cleaved junctions of 200) [1, 4]: 10

CGCT (double strand) [CGCT site in pUC19 (relaxed R1 PyGCPy)]
activity (cleaved junctions of 200) ([1]; CviJI*, 7 uncleaved, CviJI** 2 of 76 (Table 5)): 17

TGCC (double strand) [TGCC site in pUC19 (relaxed R1 PyGCPy)]
activity (cleaved junctions of 200) ([1]; CviJI*, 10 uncleaved, printed TOCC in Table 2, CviJI** 2 of 76 (Table 5)): 13

AGCG (double strand) [AGCG site in pUC19 (relaxed R2 PuGCPu)]
activity (cleaved junctions of 200) ([1]; CviJI*, 11 uncleaved, CviJI** 0 of 76 (Table 5)): 12

TGCA (double strand) [TGCA site in pUC19 (R3 PyGCPu)]
activity (cleaved junctions of 200) ([1]; CviJI*, 19 uncleaved, CviJI** 0 of 76 (Table 5)): 0

GGCA (double strand) [GGCA site in pUC19 (relaxed R2 PuGCPu)]
activity (cleaved junctions of 200) [1, 3]: 11

plasmid p710/pBMC5 (G/A)GC(T/C/G) sites
activity (% resistance to HaeIII) [2]: 90
